Substrate: O=[N+]([O-])c1ccc2c(c1)OCO2
Experiment: purified protein
Format: biochemical, Thermothelomyces thermophilus
Details: H2O2 as saturating co-substrate, standard deviation <18%

Protein	Km (20 nM enzyme)	kcat (20 nM enzyme)	kcat/Km (20 nM enzyme)	Km (5 nM enzyme)	kcat (5 nM enzyme)	kcat/Km (5 nM enzyme)
MthUPO (Thermothelomyces thermophilus ATCC 42464) (protein, secreted from S. cerevisiae, purified; 245 AA plus C-terminal TwinStrep-GFP11 tag; heme-thiolate) AGFDTWSPPGPYDVRAPCPMLNTLANHGFLPHDGKDITREQTENALFEALHINKTLASFLFDFALTTNPKNTSTFSLNDLGNHNILEHDASLSRADAYFGNVLQFNQTVFDETKTYWEGDTIDLRMAAKARLGRIKTSQATNPTYSMSELGDAFTYGESAAYVVVLGDKESRTVKRSWVEWFFEHEQLPQHLGWKRPAASFEEEDLNSSMEEIEKYTKELEGSNSTSGSQKHRRRLPRRRAHFGF	386 µM	7.1 s⁻¹	19000 M⁻¹ s⁻¹			
MthUPO (Thermothelomyces thermophilus ATCC 42464; L76F) (protein, secreted from S. cerevisiae, purified; 245 AA plus C-terminal TwinStrep-GFP11 tag; heme-thiolate) AGFDTWSPPGPYDVRAPCPMLNTLANHGFLPHDGKDITREQTENALFEALHINKTLASFFFDFALTTNPKNTSTFSLNDLGNHNILEHDASLSRADAYFGNVLQFNQTVFDETKTYWEGDTIDLRMAAKARLGRIKTSQATNPTYSMSELGDAFTYGESAAYVVVLGDKESRTVKRSWVEWFFEHEQLPQHLGWKRPAASFEEEDLNSSMEEIEKYTKELEGSNSTSGSQKHRRRLPRRRAHFGF				110 µM	2.9 s⁻¹	27000 M⁻¹ s⁻¹
MthUPO (Thermothelomyces thermophilus ATCC 42464; A177F/L76F/S175G) (protein, secreted from S. cerevisiae, purified; 245 AA plus C-terminal TwinStrep-GFP11 tag; heme-thiolate) AGFDTWSPPGPYDVRAPCPMLNTLANHGFLPHDGKDITREQTENALFEALHINKTLASFFFDFALTTNPKNTSTFSLNDLGNHNILEHDASLSRADAYFGNVLQFNQTVFDETKTYWEGDTIDLRMAAKARLGRIKTSQATNPTYSMSELGDAFTYGEGAFYVVVLGDKESRTVKRSWVEWFFEHEQLPQHLGWKRPAASFEEEDLNSSMEEIEKYTKELEGSNSTSGSQKHRRRLPRRRAHFGF	422 µM	132 s⁻¹	310000 M⁻¹ s⁻¹			
MthUPO (Thermothelomyces thermophilus ATCC 42464; F170A/F75Q/L76M/S175G) (protein, secreted from S. cerevisiae, purified; 245 AA plus C-terminal TwinStrep-GFP11 tag; heme-thiolate) AGFDTWSPPGPYDVRAPCPMLNTLANHGFLPHDGKDITREQTENALFEALHINKTLASQMFDFALTTNPKNTSTFSLNDLGNHNILEHDASLSRADAYFGNVLQFNQTVFDETKTYWEGDTIDLRMAAKARLGRIKTSQATNPTYSMSELGDAATYGEGAAYVVVLGDKESRTVKRSWVEWFFEHEQLPQHLGWKRPAASFEEEDLNSSMEEIEKYTKELEGSNSTSGSQKHRRRLPRRRAHFGF	290 µM	59.4 s⁻¹	210000 M⁻¹ s⁻¹			
MthUPO (Thermothelomyces thermophilus ATCC 42464; F75Q/L76F/S175G) (protein, secreted from S. cerevisiae, purified; 245 AA plus C-terminal TwinStrep-GFP11 tag; heme-thiolate) AGFDTWSPPGPYDVRAPCPMLNTLANHGFLPHDGKDITREQTENALFEALHINKTLASQFFDFALTTNPKNTSTFSLNDLGNHNILEHDASLSRADAYFGNVLQFNQTVFDETKTYWEGDTIDLRMAAKARLGRIKTSQATNPTYSMSELGDAFTYGEGAAYVVVLGDKESRTVKRSWVEWFFEHEQLPQHLGWKRPAASFEEEDLNSSMEEIEKYTKELEGSNSTSGSQKHRRRLPRRRAHFGF	303 µM	47 s⁻¹	160000 M⁻¹ s⁻¹			

Source: PMC8496131, “Accessing Chemo- and Regioselective Benzylic and Aromatic Oxidations by Protein Engineering of an Unspecific Peroxygenase” (ACS Catalysis, 2021)
